Patent US20170101472A1 (Regeneron, published 2017)
Changes are numbered by the printed parent chain. Names may count otherwise.

Key:
[1] = target: T1, human LAG3 expressed on HEK293 cells (human, UniProt P18627 23-525); test: cell adherence assay, blocks RAJI (human MHCII) cells on HEK293-hLAG3
T1 construct: also called hLAG3; HEK293/hLAG3
T1 sequence: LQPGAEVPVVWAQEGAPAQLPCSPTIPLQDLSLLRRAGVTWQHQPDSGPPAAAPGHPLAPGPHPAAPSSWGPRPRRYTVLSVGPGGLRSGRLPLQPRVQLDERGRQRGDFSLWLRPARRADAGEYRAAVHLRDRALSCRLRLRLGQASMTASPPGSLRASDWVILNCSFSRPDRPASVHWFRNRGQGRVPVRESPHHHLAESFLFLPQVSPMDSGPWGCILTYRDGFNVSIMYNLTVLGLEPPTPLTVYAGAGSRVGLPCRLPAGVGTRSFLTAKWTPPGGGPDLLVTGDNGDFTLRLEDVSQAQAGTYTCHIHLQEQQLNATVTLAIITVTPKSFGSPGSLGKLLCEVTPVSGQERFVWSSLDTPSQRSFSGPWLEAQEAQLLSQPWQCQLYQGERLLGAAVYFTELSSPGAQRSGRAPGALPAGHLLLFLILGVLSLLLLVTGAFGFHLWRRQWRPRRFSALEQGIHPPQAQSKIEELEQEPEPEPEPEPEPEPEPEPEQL
Protocol: Cells were plated into sterile Nunclon™ Delta 96-Well MicroWell™ Black Optical Bottom Plates (Thermo Scientific). The wells from the perimeter of the plate were not included in the assay design to avoid edge effects.
On the day of treatment, all antibodies were serially (1:3) diluted in RPMI media (without FBS or supplements added). The 9-point dilution ranged between 45 pM to 300 nM, with the last dilution point containing no mAb. […] While the plated HEK293-LAG3 cells were incubating with the test or control antibodies, non-adherent B-cells (RAJI or A20) were labeled with Calcein AM using the following procedure. RAJI and A20 suspension cells were harvested and centrifuged at 1,200 rpm for 5 minutes. Cell pellets were resuspended in 1×PBS and counted. Cells were washed with RPMI, and resuspended in RPMI at a concentration of 10⁶ cells per 1 ml. Cells were labeled by adding 5 μL of Calcein AM per 1 ml of cell suspension and incubated for 30 min at 37° C., at 5% CO₂. […] Subsequently, 10 μL of BD Pharmingen Fc Block (0.5 mg/mL) was added per 1 ml of the Calcein AM labeled cells, which were incubated at RT for 10 minutes. The Calcein AM-stained, Fc-blocked RAJI or A20 cells were resuspended in RPMI to a final concentration of 3×10⁶ cells per 1 ml and subsequently used in the adherence assay.
The labeled suspension cells were incubated with the HEK293 monolayer for 1 hour at 37° C., at 5% CO₂.

[2] = target: T2, human LAG3 chimera (extracellular domain of human LAG3 and trans-membrane/cytoplasmic domain of human CD300a) … (human, UniProt P18627 23-450; Q9UGN4 181-299, limits assumed); test: cell-based or functional assay
T2 sequence (looked up): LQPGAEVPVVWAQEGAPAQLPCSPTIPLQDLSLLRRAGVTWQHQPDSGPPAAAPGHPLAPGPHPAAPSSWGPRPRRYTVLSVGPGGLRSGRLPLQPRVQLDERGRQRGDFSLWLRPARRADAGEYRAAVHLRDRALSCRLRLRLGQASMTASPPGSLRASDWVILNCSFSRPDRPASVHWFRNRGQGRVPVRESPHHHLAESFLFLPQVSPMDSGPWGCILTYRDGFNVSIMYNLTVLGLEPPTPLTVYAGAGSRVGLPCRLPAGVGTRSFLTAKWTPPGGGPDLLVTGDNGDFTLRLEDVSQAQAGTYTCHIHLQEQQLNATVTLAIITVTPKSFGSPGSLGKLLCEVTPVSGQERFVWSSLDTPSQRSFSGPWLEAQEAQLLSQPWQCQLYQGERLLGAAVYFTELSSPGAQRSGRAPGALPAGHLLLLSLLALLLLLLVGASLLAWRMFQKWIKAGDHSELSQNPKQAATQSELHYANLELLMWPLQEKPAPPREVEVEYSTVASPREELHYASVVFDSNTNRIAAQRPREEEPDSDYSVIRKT

[3] = target: T3, monkey LAG3 (mfLAG3) expressed on HEK293 cells (cynomolgus monkey, UniProt P18627 24-525 (human entry)); test: electrochemiluminescence cell binding, HEK293-mfLAG3
T3 construct: also called HEK293/mfLAG3; HEK293-mfLAG3
T3 chain: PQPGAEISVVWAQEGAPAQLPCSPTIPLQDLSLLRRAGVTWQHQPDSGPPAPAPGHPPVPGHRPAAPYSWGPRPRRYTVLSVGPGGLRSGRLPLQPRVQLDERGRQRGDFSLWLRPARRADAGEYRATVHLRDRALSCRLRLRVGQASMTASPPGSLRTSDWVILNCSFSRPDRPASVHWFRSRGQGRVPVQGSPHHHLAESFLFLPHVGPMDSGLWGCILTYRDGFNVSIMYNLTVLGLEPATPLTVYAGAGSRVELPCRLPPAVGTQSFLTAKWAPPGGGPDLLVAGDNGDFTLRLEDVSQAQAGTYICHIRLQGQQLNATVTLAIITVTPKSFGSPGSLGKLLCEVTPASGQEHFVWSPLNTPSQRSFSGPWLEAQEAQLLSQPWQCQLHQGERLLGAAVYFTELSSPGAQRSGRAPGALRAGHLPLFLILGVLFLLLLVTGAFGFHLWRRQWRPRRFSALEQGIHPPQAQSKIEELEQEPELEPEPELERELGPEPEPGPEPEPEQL
Protocol: To investigate the ability of a panel of anti-LAG3 monoclonal antibodies to bind cell-surface expressed LAG3, an in vitro binding assay utilizing human and monkey LAG3 expressing cell lines in an electrochemiluminescence based detection platform [Meso Scale Diagnostics, Rockville, Md.—(MSD)] was developed.
Experiments were carried out according to following procedure. Cells from the three cell lines described above were rinsed once in 1×PBS buffer without Ca²⁺/Mg²⁺ followed by 10-minute incubation at 37° C. with Enzyme Free Cell Dissociation Solution. […] Approximately 10,000 cells per well in the cell-washing buffer were seeded into the 96-well carbon electrode plates (MULTI-ARRAY high bind plate, MSD) and incubated for 1 hour at 37° C. to allow the cells to adhere. Nonspecific binding sites were blocked by 2% BSA (w/v) in PBS for 1 hour at room temperature. […] The plates were then washed to remove the unbound antibodies using an AquaMax2000 plate washer (MDS Analytical Technologies). The plate-bound antibodies were detected with a SULFO-TAG™-conjugated anti-human IgG antibody (MSD) for 1 hour at room temperature. After washes, the plates were developed with the Read Buffer (MSD) according to manufacturer's recommended procedure and the luminescent signals were recorded with a SECTOR Imager 6000 (MSD) instrument. The direct binding signals (in relative light units—RLU) were analyzed as a function of the antibody concentration and the data were fitted with a sigmoidal (four-parameter logistic) dose-response model using Graph Pad Prism™ software. The potency of each antibody was determined by calculating EC₅₀.

B1: H4sH14813N (antibody, human IgG4 S228P, kappa, V domains shown)
VH: QVQLQQWGAGLLKPSETLSLTCAVYGGSFSGYYWNWIRQPPGKGLEWVGEISHRGSTNYNPSLKSRVTISLDTSKNQFSLKLTSVTAADTAVYYCSRDEELEFRFFDYWGQGTLVTVSS
VL: EIVLTQSPATLSLSPGERATLSCRASQSVSSYLAWYQQKPGQAPRLLVYGASNRATGIPARFSGSGSGTDFTLTISSLEPEDFAFYYCQQRSNWPLTFGGGTKVEIKR
notes: H4sH = modified human IgG4 Fc
- IC50 [1]: 6 nM
- EC50, AP1-Luc signaling, bispecific mode [2]: 0.688 nM
- EC50, AP1-Luc signaling, peptide mode [2]: 0.816 nM

B2: H4sH15462P (antibody, V domains shown)
VH: QVQLVQSGAEVKKPGASVKVSCKASGYTFTNYYIHWVRQAPGQGLDWMGIINPGGGNTNYAQKFLGRVTMTRDTSTTTVYMELSSLRSEDTAIYYCARENWNSYFDNWGQGTLVTVSS
VL: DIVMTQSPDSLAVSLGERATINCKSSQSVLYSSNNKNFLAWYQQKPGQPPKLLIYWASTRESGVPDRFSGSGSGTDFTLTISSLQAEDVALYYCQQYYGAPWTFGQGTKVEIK
notes: H4sH = human IgG4 Fc with 2 or more amino acid changes as disclosed in US20140243504
- IC50 [1]: 2.5 nM
- EC50, AP1-Luc signaling, bispecific mode [2]: 0.148 nM
- EC50, AP1-Luc signaling, peptide mode [2]: 0.486 nM

B3: H4H15462P (antibody, human IgG4, V domains shown)
VH: B2 VH
VL: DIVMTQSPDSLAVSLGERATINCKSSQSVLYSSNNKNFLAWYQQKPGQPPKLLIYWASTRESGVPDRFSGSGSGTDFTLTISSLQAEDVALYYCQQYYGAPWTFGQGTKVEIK
notes: H4H = human IgG4 Fc with S108P hinge mutation
- IC50 [1]: 3.2 nM
- EC50, AP1-Luc signaling, bispecific mode [2]: 0.224 nM
- EC50, AP1-Luc signaling, peptide mode [2]: 0.344 nM

B4: H4H17823P (antibody, human IgG4, V domains shown)
VH: EVQLLESGGGLVQPGGSLRLSCAASGFTFRSYAMSWVRQAPGKGLEWVSVISGGGGRTYYTDSVKGRFTISRDNSKSMLYLQMNSLRAEDTAIYYCAKERVTGIDHYYYGVDVWGQGTTVTVSS
VL: DIQMTQSPSSLSASVGDRVTITCRASQSISSYLNWYQQKPGKAPKLLIYATSSLQSGVPSRFSGSASGTDFTLAISSLQPEDFATYYCQQSYTTPLTFGGGTKVEIK
notes: as for B3
- IC50 [1]: 8.6 nM
- EC50, AP1-Luc signaling, bispecific mode [2]: > 100 nM
- EC50, AP1-Luc signaling, peptide mode [2]: 0.688 nM

B5: H4H15479P (antibody, human IgG4, V domains shown)
VH: QVQLQQWGAGLLNPSETLSLTCAVYGGAFSDYYWNWIRQPPGKGLEWIGEINHRGSTNYNPSLKSRVTISVDTSKNQFSLRMSSVTAADAAVYYCARGEDYDIWNGYYQEKWGQGTLVTVSS
VL: EIVLTQSPATLSLSPGERATLSCRASQSISTYLAWYQQKPGQAPRLLIYDASKRATGIPARFSGSGSGTDFTLTISSLEPEDFVVYYCHQRSNWPLTFGGGTKVEIK
- IC50 [1]: 31 nM
- EC50 [3]: 73.9 nM
- EC50, AP1-Luc signaling, bispecific mode [2]: 0.145 nM
- EC50, AP1-Luc signaling, peptide mode [2]: 0.284 nM

B6: H4sH15479P (antibody, V domains shown)
VH: B5 VH
VL: B5 VL
- IC50 [1]: 9.6 nM
- EC50, AP1-Luc signaling, bispecific mode [2]: 0.0872 nM
- EC50, AP1-Luc signaling, peptide mode [2]: 0.135 nM

B7: H4H14813N (antibody, human IgG4, V domains shown)
VH: B1 VH
VL: B5 VL with I29V, T31S, I48V, D50G, K53N, V84A, V85F, H89Q
notes: as for B3
- IC50 [1]: 17 nM
- EC50, AP1-Luc signaling, bispecific mode [2]: 1.07 nM
- EC50, AP1-Luc signaling, peptide mode [2]: 1.01 nM

B8: H4H15483P (antibody, human IgG4, V domains shown)
VH: QVQLQQWGAGLLPPSETLSLICAVYGGSFSGYYWSWIRQPPGKGLEWIGEINHRGSTNYNPSLKSRATISVDTSKNQFSLKLSSVTAADTAVYYCSRGEDYYDSSGYSYYFDYWGQGTLVTVSS
VL: B5 VL with I29V, T31S, K53N, V84A, H89Q
notes: as for B3
- IC50 [1]: 19 nM
- EC50, AP1-Luc signaling, bispecific mode [2]: 3.69 nM
- EC50, AP1-Luc signaling, peptide mode [2]: 2.54 nM

B9: H4sH15482P (antibody, human IgG4 S228P, kappa)
heavy: QVQLVESGGGVVQPGRSLRLSCVASGFTFSSYGMHWVRQAPGKGLEWVAIIWYDGSNKYYADSVKGRFTISRDNSKNTQYLQMNSLRAEDTAVYYCASVATSGDFDYYGMDVWGQGTTVTVSSASTKGPSVFPLAPCSRSTSESTAALGCLVKDYFPEPVTVSWNSGALTSGVHTFPAVLQSSGLYSLSSVVTVPSSSLGTKTYTCNVDHKPSNTKVDKRVESKYGPPCPPCPAPPVAGPSVFLFPPKPKDTLMISRTPEVTCVVVDVSQEDPEVQFNWYVDGVEVHNAKTKPREEQFNSTYRVVSVLTVLHQDWLNGKEYKCKVSNKGLPSSIEKTISKAKGQPREPQVYTLPPSQEEMTKNQVSLTCLVKGFYPSDIAVEWESNGQPENNYKTTPPVLDSDGSFFLYSRLTVDKSRWQEGNVFSCSVMHEALHNHYTQKSLSLSLGK
light: EIVLTQSPATLSLSPGERTTLSCRASQRISTYLAWYQQKPGQAPRLLIYDASKRATGIPARFSGSGSGTGFTLTISSLEPEDFAVYYCQQRSNWPLTFGGGTKVEIKRTVAAPSVFIFPPSDEQLKSGTASVVCLLNNFYPREAKVQWKVDNALQSGNSQESVTEQDSKDSTYSLSSTLTLSKADYEKHKVYACEVTHQGLSSPVTKSFNRGEC
notes: H4sH = modified human IgG4 Fc; also called mAb1
- IC50 [1]: 3.3 nM
- EC50, AP1-Luc signaling, bispecific mode [2]: 0.518 nM
- EC50, AP1-Luc signaling, peptide mode [2]: 0.806 nM

B10: H4H15482P (antibody, human IgG4 S228P, kappa)
heavy: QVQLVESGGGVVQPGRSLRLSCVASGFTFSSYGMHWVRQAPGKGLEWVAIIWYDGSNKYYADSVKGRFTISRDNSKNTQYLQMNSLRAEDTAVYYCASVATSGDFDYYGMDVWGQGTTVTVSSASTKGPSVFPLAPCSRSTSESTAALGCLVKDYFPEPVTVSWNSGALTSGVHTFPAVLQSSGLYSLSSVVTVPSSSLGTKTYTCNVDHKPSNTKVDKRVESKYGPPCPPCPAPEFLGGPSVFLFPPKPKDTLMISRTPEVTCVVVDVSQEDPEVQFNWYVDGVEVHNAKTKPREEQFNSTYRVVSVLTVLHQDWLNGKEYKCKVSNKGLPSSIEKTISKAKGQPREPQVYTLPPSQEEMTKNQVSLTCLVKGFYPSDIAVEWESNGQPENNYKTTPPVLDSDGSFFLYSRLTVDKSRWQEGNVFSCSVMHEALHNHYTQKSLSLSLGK
light: B9 light
notes: H4H = human IgG4 Fc with S108P
- IC50 [1]: 15 nM
- EC50, AP1-Luc signaling, bispecific mode [2]: > 100 nM
- EC50, AP1-Luc signaling, peptide mode [2]: 2.48 nM
